From US20040192900A1 (published 2004)

Molecular target: CD22mFc (UniProt P20273 20-687)
Assay: Biacore

Kd [nM]	Binder
0.204	chimeric 5/44 variant K60R (antibody, V domains shown) VH: EVQLQQSGTVLARPGASVKMSCKASGYRFTNYWIHWVKQRPGQGLEWIGGINPGNNYTTYRRNLKGKATLTAVTSASTAYMDLSSLTSEDSAVYYCTREGYGNYGAWFAYWGQGTLVTVSS VL: DVVVTQTPLSLPVSFGDQVSISCRSSQSLANSYGNTFLSWYLHKPGQSPQLLIYGISNRFSGVPDRFTGSGSGTDFTLKISTIKPEDLGMYYCLQGTHQPYTFGGGTKLEIKR
0.327	chimeric 5/44 variant N55Q (antibody, V domains shown) VH: EVQLQQSGTVLARPGASVKMSCKASGYRFTNYWIHWVKQRPGQGLEWIGGINPGNQYTTYKRNLKGKATLTAVTSASTAYMDLSSLTSEDSAVYYCTREGYGNYGAWFAYWGQGTLVTVSS VL: DVVVTQTPLSLPVSFGDQVSISCRSSQSLANSYGNTFLSWYLHKPGQSPQLLIYGISNRFSGVPDRFTGSGSGTDFTLKISTIKPEDLGMYYCLQGTHQPYTFGGGTKLEIKR
0.066	chimeric 5/44 variant T57A (antibody, V domains shown) VH: EVQLQQSGTVLARPGASVKMSCKASGYRFTNYWIHWVKQRPGQGLEWIGGINPGNNYATYKRNLKGKATLTAVTSASTAYMDLSSLTSEDSAVYYCTREGYGNYGAWFAYWGQGTLVTVSS VL: DVVVTQTPLSLPVSFGDQVSISCRSSQSLANSYGNTFLSWYLHKPGQSPQLLIYGISNRFSGVPDRFTGSGSGTDFTLKISTIKPEDLGMYYCLQGTHQPYTFGGGTKLEIKR
